{"source": "paper doi:10.1101/059451", "molecular_target": "CFF-Myc (UniProt P01732)", "experiment": "co-IP", "data": [{"substance": "HA-TNPO1 (from UniProt Q92973 1-898) (natural protein)", "values": [{"measurement": "fold more TNPO1 co-IPed in the presence of Rab8-T22N than -Q67L or -wt", "result": 3, "unit": "fold"}]}]}
